± gives the standard deviation.
Test: protein stability index of a GFP-peptide fusion (GPS, HEK-293T) (PSI 1-6); higher = more stable
[1] = treatment: DMSO, c terminus: a fixed tail appended
[2] = treatment: MLN4924 1 uM, 8 h, c terminus: a fixed tail appended
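Further: 24-mer peptide tiles fused after GFP, lentivirally expressed, FACS-sorted into six equal bins by GFP/DsRed ratio, decoded by Illumina sequencing, PSI is the read-weighted mean bin number.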

Row | Sequence | protein stability index [1] | protein stability index [2] | protein stability index (treatment: DMSO, c terminus: native) | protein stability index (treatment: MLN4924 1 uM, 8 h, c terminus: native)
1 | VFQEMLLHKFPYRMVPALPPKRML [SNX8] | 2.12 ± 0.54 | 2.13 ± 0.22 |  | 
2 | ELQGLDYCKPTRLDLLLDMPPVSY [SPSB1] | 2.31 ± 0.14 | 2.38 ± 0.11 |  | 
3 | SFSRPADLDLIQSTPFKPLALKTP [MFF] | 3.19 ± 0.46 | 3.5 ± 0.048 |  | 
4 | RVYNNTLTYGEVRNSKASAYCLDQ [GALNT9] | 2.98 ± 0.16 | 3.07 ± 0.31 |  | 
5 | GSLILPPGPGGTMKRHSSRDAAGK [FCHO1] | 4.68 ± 0.2 | 4.56 ± 0.2 |  | 
6 | MRGFKGDRGPKGEKGEKGDRAGDA [SCARA5] | 5.41 ± 0.25 | 5.44 ± 0.44 |  | 
7 | AVWLIFFMLGLGTLLPWNFFMTAT [SLC29A1] | 3.09 ± 0.66 | 2.6 ± 0.12 |  | 
8 | ALALANSDSVHIEDAEAVEQLREA [ESRRA] | 5.18 ± 0.3 | 5.26 ± 0.28 |  | 
9 | KEISDDEAEEEKGEKEEEDKDDEE [HSP90AB1] | 5.66 ± 0.34 | 5.68 ± 0.19 |  | 
10 | HQKLEREARICRLLKHPNIVRLHD [CAMK2D] | 2.51 ± 0.22 | 2.9 ± 0.46 |  | 
11 | MKEFSNQVVGQVNVEMDATPGIDL [KRT13] | 4.58 ± 0.16 | 4.44 ± 0.27 |  | 
12 | SLTDISQPTIVEALLGYEMVQVAC [NEK8] | 2.73 ± 0.64 | 2.4 ± 0.5 |  | 
13 | QMAKKAEAFQLYQEAAQLDMLLEK [FLOT1] | 2.73 ± 0.36 | 3.21 ± 0.64 |  | 
14 | LNLAMVYRYCCKLNKKLKSYSLSR [CDC14A] | 3.32 ± 0.69 | 3.04 ± 0.49 |  | 
15 | QELVDYVNARQKQGIYEEYEDIRR [PTPN9] | 3.88 ± 0.24 | 3.86 ± 0.2 |  | 
16 | ENFEDVGHSTDAREMSKTFIIGEL [CYB5A] | 3.95 ± 0.4 | 3.89 ± 0.29 |  | 
17 | AVRKLKFARHIKKSEGQKIPKVEL [GULP1] | 3.1 ± 0.091 | 3.13 ± 0.21 |  | 
18 | QAELQELEERLQLQFEAEMARLQE [MTUS2] | 4.78 ± 0.38 | 4.72 ± 0.29 |  | 
19 | EIKSMKKRMSELCIDFNKNLNEDD | 4.64 ± 0.6 |  |  | 
20 | GELSPEQPSFEPTKNKELTDEFRE [FADS1] | 5.52 ± 0.33 | 5.38 ± 0.18 |  | 
21 | ACSEDSLFLRCSLRHKDEEEEDDD [DRICH1] | 5.32 ± 0.27 | 5.24 ± 0.16 |  | 
22 | RTHINAVVAKIQAKIPGAKRHAE [RTN1] |  |  | 2.74 ± 0.25 | 3.04 ± 0.36

Row | Sequence | protein stability index [1] | protein stability index [2] | protein stability index (treatment: DMSO, c terminus: native) | protein stability index (treatment: MLN4924 1 uM, 8 h, c terminus: native)
23 | ADPDEMRMQALLIRERILGPSHPD [FEM1C] | 3.94 ± 0.33 | 3.94 ± 0.13 |  | 
24 | PLLQSIHQLDFVQVKASSPVPATP [TRIM9] | 3.02 ± 0.18 | 3.2 ± 0.21 |  | 
25 | DEEKQEYLNEYEAEKIEYNESMKA [SMARCE1] | 5.5 ± 0.17 | 5.05 ± 0.36 |  | 
26 | NMPKDHPVSCCLGLLLESLVPFIV [DYNC2LI1] | 2.53 ± 0.23 | 2.57 ± 0.5 |  | 
27 | CIDIVIRHVAPIPSHYDVQDRFRI [MOSPD3] | 2.77 ± 0.61 | 2.93 ± 0.55 |  | 
28 | KLLLFLSTELQASQILQNKKHKNS [FAM98B] | 2.98 ± 0.75 | 2.5 ± 1.1 |  | 
29 | SKAPVLTYGQPKQAPPADFIPAHV [EFHC1] | 3.93 ± 0.18 | 4.1 ± 0.25 |  | 
30 | GSLDIMKMLLMYCAKMEKDGYGMT [FEM1C] | 3.22 ± 0.46 | 2.58 ± 0.7 |  | 
31 | LNIVPRTKVVYLASETFNYSAIDR [PI4K2A] | 2.28 ± 0.18 | 2.07 ± 0.2 |  | 
32 | APGDLSATEPATCFPSTQKPTEPS [FBF1] | 5.22 ± 0.22 | 5.343 ± 0.051 |  | 
33 | KKMESEEDSNWEKSPDNEDSGDSK [GOLPH3L] | 5.63 ± 0.23 | 5.59 ± 0.26 |  | 
34 | DVYRDGTGVVEFVRKEDMTYAVRK [SRSF1] | 3.96 ± 0.26 | 4.47 ± 0.18 |  | 
35 | AARKKYNLLQDSSTSDSDLTCDSS [C18orf25] | 4.96 ± 0.21 | 4.89 ± 0.23 |  | 
36 | KQEMGTYLRFIVSRMKERAIDLNK [ZMYND11] | 2.9 ± 0.73 | 2.71 ± 0.69 |  | 
37 | TGGAAGAGGAGRGEDEENREHRVR [KCTD13] | 5.24 ± 0.26 | 5.53 ± 0.32 |  | 
38 | QGAKERAHQQKKHSGFEDELSEVL [CHGA] | 5.23 ± 0.25 | 5.27 ± 0.23 |  | 
39 | SPELQEEFGYNAETQKLLCKNGET [ARFIP2] | 5.31 ± 0.29 | 5.46 ± 0.11 |  | 
40 | ENAQKKRFNQVLKNLLHAEFLRVQ [VPS39] | 2.73 ± 0.43 | 2.29 ± 0.39 |  | 
41 | FAKAKPEIPWTSLTRKGLVRVVFF [PHTF1] | 3.41 ± 0.51 | 3.29 ± 0.84 |  | 
42 | GGPSSPPSDPPAMSPGPLDALSSP [C2CD2L] | 5.23 ± 0.26 | 5.27 ± 0.14 |  | 
43 | SQSWHTESLPVSLGPESWQQIAMD [BCL2L13] | 3.79 ± 0.24 | 3.93 ± 0.23 |  | 
44 | VYNANINLFCVLRLVVEFPATGGA [PKD2L1] | 3.05 ± 0.41 | 3.13 ± 0.71 |  | 

Row | Sequence | protein stability index [1] | protein stability index [2] | protein stability index (treatment: DMSO, c terminus: native) | protein stability index (treatment: MLN4924 1 uM, 8 h, c terminus: native)
45 | YGRSDVVVLCFSIANPNSLNHVKS [RHOBTB1] | 3.21 ± 0.43 | 2.64 ± 0.69 |  | 
46 | FLEEDNYKNIKRPPGDIMFLLVQR [USP39] | 2.23 ± 0.37 | 2.11 ± 0.27 |  | 
47 | LYHNVEGFTDRREARKYASNLLKA [DVL3] | 3.39 ± 0.071 | 3.49 ± 0.22 |  | 
48 | QGNKKEHVIHIIDFGLAKEYIDPE [CSNK1G1] | 2.5 ± 0.16 | 2.81 ± 0.24 |  | 
49 | FGAWRCLLDATVAGGQTRLQASDR [FCHSD1] | 2.36 ± 0.27 | 2.48 ± 0.34 |  | 
50 | QRVEKDMKKAKEQLKIRKSNQIPT [FUNDC2] | 4.58 ± 0.32 | 4.56 ± 0.26 |  | 
51 | SKIDALSSEKLNLQKDLETRPTQH [CEP70] | 4.71 ± 0.29 | 4.71 ± 0.073 |  | 
52 | GKVEAQHILASAPTDRNLCHFQAL [PYCR3] | 2.7 ± 0.25 | 3.04 ± 0.31 |  | 
53 | EVTLEANPTSAPGSRLAEFGAAGV [RSAD1] | 4.21 ± 0.13 | 4.25 ± 0.24 |  | 
54 | ERVALANRKRECGNAHYQRADFVL [FKBP8] | 2.98 ± 0.27 | 2.75 ± 0.12 |  | 
55 | ASEPLPWDLRFRIIHETAVGMNFL [RIPK4] | 2.43 ± 0.15 | 2.33 ± 0.19 |  | 
56 | GKAFSQNSGLINHQRIHTGEKPYE [ZNF24] | 3.86 ± 0.19 | 4.33 ± 0.42 |  | 
57 | FDSHRLPGDCFLLLVLLLYAPVGF [AUP1] | 3.02 ± 0.62 | 3.15 ± 0.17 |  | 
58 | TVTLTVAVADSIPQVLADLGSFES [PCDHGA10] | 2.28 ± 0.32 | 2.11 ± 0.093 |  | 
59 | LLKAGAEVNVLNDMRDTPLHRAAF [OSBPL1A] | 3.12 ± 0.24 | 3 ± 0.17 |  | 
60 | LKRSANQMGVSAKRRPKAQPTTLV [MED27] | 3.48 ± 0.17 | 3.72 ± 0.27 |  | 
61 | YFMIQALNQKTSEKMKKRKMSNSF [RHOBTB3] | 2.24 ± 0.08 | 2.37 ± 0.33 |  | 
62 | PAPQVGTQIRTITEEIRDGKVISS [KRT36] | 5.08 ± 0.2 | 5.17 ± 0.23 |  | 
63 | GRAVEHAMFLGDAAAHWYGGAEMR [MYORG] | 2.87 ± 0.34 | 3.14 ± 0.27 |  | 
64 | SGWIFFYVPSSESFIIYLKNIVIA [P2RY14] | 3.26 ± 0.53 | 3.09 ± 0.88 |  | 
65 | MDNNRNLDLDSIIDEVRTQYEEIA [KRT71] | 4.14 ± 0.26 | 4.13 ± 0.17 |  | 
